± gives the standard deviation of the averaged measurements.
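Also: ATP exposure 15 min at 22 °C before imaging.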

The series deals with ATP. The experiment in a line: switch fluorescence ratio, 500 uM ATP over buffer (Cy3 cluster intensity, sum of 5 cycles each) (fold (ratio)); higher = stronger signal-on switching upon ATP binding; sequences stand for … in TCGTCGGCAGCGTCAGATGTGTATAAGAGACAGTTTTTTTTTTTTTTTTTTTTTTTTT…TC. The following applies: aptamer strand: ATP DNA aptamer (quencher-CACCTGGGGGAGTATTGCGGAGGAAGG + anchor), 100 nM annealed; ATP concentration: 500 uM. The method, boiled down:
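The fluorescence ratio divides summed target-cycle Cy3 intensity by summed buffer-cycle Cy3 intensity for each cluster and is averaged per switch-domain sequence. Cy3-labelled switching-strand clusters on a modified Illumina MiSeq flow-cell were annealed to 100 nM quencher-labelled ATP aptamer, then imaged in selection buffer and again after 15 min with 500 uM ATP at 22 °C. Five such cycles were run, with NaOH stripping and re-annealing between them, and clusters outside 100-1000 RFU were excluded.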
For the sequence ACATCAGCGG, the switch fluorescence ratio was 0.958 ± 0.031.

For the sequence TAAAATACA, the switch fluorescence ratio was 0.983 ± 0.019.

On to GAGTTTGGTG, for which the switch fluorescence ratio amounted to 0.94 ± 0.033.

With TGGGCGACCG, the switch fluorescence ratio turned out to be 0.99 ± 0.021.

ATGGGGGCCG: the switch fluorescence ratio amounted to 1.01 ± 0.039.

As to TTCGATTACG, the switch fluorescence ratio was 1.03 ± 0.018.

Turning to GATCTTATTC, the switch fluorescence ratio stood at 0.98506 ± 0.00068.

As to ACCTGTGATC, the switch fluorescence ratio came out at 1.02 ± 0.026.

On to ATTGTCTGAG, for which the switch fluorescence ratio came out at 1.01 ± 0.011.

As to ATCGCTTAAG, the switch fluorescence ratio was found to be 0.991 ± 0.035.

With ACGAGGCCGG, the switch fluorescence ratio was 0.952 ± 0.077.

On to CAGCTAGCGG, for which the switch fluorescence ratio was 0.97 ± 0.025.

AGGCGGCAGC: the switch fluorescence ratio came out at 0.982 ± 0.02.

With AAATGGTGGG, the switch fluorescence ratio came to 1.13 ± 0.16.

On to TTGGTTAGTT, for which the switch fluorescence ratio was 0.981 ± 0.027.

On to CTGTTAGAGA, for which the switch fluorescence ratio was found to be 1.01 ± 0.014.

For ATGGAAAAGC, the switch fluorescence ratio came to 1 ± 0.056.

For the sequence AAAAGCTTAT, the switch fluorescence ratio is 1.05 ± 0.03.

With TTGGGGCACG, the switch fluorescence ratio was found to be 0.99 ± 0.02.

In the case of AGATCTGGAG, the switch fluorescence ratio turned out to be 0.9982 ± 0.0069.

Take ACTTCGGTTT: the switch fluorescence ratio stood at 1.01 ± 0.035.

Consider CTCGCTGCGG, for which the switch fluorescence ratio was found to be 1.029 ± 0.0073.

Take AACCAGTATA: the switch fluorescence ratio came to 0.995 ± 0.024.

On to TTTCAAATTC, for which the switch fluorescence ratio was found to be 0.981 ± 0.026.

In the case of TACTTTAGAC, the switch fluorescence ratio was determined as 1.05 ± 0.011.

As to CGGAATGTGT, the switch fluorescence ratio came to 1 ± 0.015.

On to TCCTGGTGAT, for which the switch fluorescence ratio amounted to 1.22 ± 0.12.

For the sequence GGGCTTTATA, the switch fluorescence ratio was 1.02 ± 0.014.

Consider TCGTTTTATT, for which the switch fluorescence ratio is 0.9925 ± 0.0076.

On to TCGTGCTTTG, for which the switch fluorescence ratio was 1.0145 ± 0.00045.

Consider AAACGCCTTA, for which the switch fluorescence ratio is 1.03 ± 0.015.

On to ATGTTAAAGG, for which the switch fluorescence ratio came out at 0.998 ± 0.016.

As for TTGATAGCTT, the switch fluorescence ratio is 0.998 ± 0.018.

With AGGTTTGGGA, the switch fluorescence ratio stood at 0.987 ± 0.032.

Regarding AAGATAACGG, the switch fluorescence ratio is 1.07 ± 0.048.

Take GGGAGCTTTT: the switch fluorescence ratio was determined as 0.999 ± 0.023.

Take TGGGAGGTTC: the switch fluorescence ratio is 1.03 ± 0.02.

Turning to GGGACGGGTT, the switch fluorescence ratio was 0.974 ± 0.029.

GTTTTGATTG: the switch fluorescence ratio turned out to be 1 ± 0.04.

Take AGGTAAAAAG: the switch fluorescence ratio turned out to be 1.02 ± 0.017.

Consider GTTAGGGGCA, for which the switch fluorescence ratio is 1 ± 0.072.

As to GTAATAGTTT, the switch fluorescence ratio came out at 1 ± 0.036.

AAAGGGGATC: the switch fluorescence ratio was determined as 0.998 ± 0.017.

Turning to ACATCGGGTG, the switch fluorescence ratio was 1.42 ± 0.59.

As to CGGGTATGTA, the switch fluorescence ratio came to 1 ± 0.0022.

Turning to AGAGGGGGGT, the switch fluorescence ratio is 0.99 ± 0.022.

For the sequence TTAAGGCTTT, the switch fluorescence ratio is 0.984 ± 0.025.

AGAAAAGGGG: the switch fluorescence ratio came out at 1.01 ± 0.054.

In the case of TTTGTGCTTT, the switch fluorescence ratio amounted to 1.01 ± 0.02.

In the case of CACGGTGGCT, the switch fluorescence ratio was 1.01 ± 0.03.

With AGGGGGCGCT, the switch fluorescence ratio stood at 1.01 ± 0.043.

CGTAGTTCGA: the switch fluorescence ratio turned out to be 1.02 ± 0.018.

As to CGGGGGTAG, the switch fluorescence ratio turned out to be 0.9982 ± 0.0021.

Take CGTGTCCGGT: the switch fluorescence ratio came out at 1.01 ± 0.043.

With TTAATGTGGC, the switch fluorescence ratio came out at 0.986 ± 0.015.

With TCCAGCCCGT, the switch fluorescence ratio amounted to 1.02 ± 0.027.

As for AGGAATCCGG, the switch fluorescence ratio is 1.03 ± 0.026.

Regarding ACGTGGAGGA, the switch fluorescence ratio is 1.054 ± 0.0031.

Consider CGTACGGACC, for which the switch fluorescence ratio was determined as 1.26 ± 0.046.

As to ATCTTAAATA, the switch fluorescence ratio turned out to be 0.9918 ± 0.0058.

Regarding TTGGATGAAG, the switch fluorescence ratio was found to be 0.982 ± 0.022.

On to TATAGGTTT, for which the switch fluorescence ratio was found to be 1.01 ± 0.02.

Regarding AAAAGGTTAG, the switch fluorescence ratio was 1.0185 ± 0.00083.

For the sequence GTTGCAGCTG, the switch fluorescence ratio came out at 0.962 ± 0.037.

Consider AGCGGTTTTC, for which the switch fluorescence ratio was determined as 0.994 ± 0.033.

On to TGTTTGTGCG, for which the switch fluorescence ratio worked out at 0.9633 ± 0.0057.

For ACTGATCATG, the switch fluorescence ratio was determined as 1.02 ± 0.028.

Source of the values: the supplement of paper PMC10126150.
